The source of these data is the nanobody polyreactivity screen of Harvey et al. (2022).

A short description of this series: yeast display, Sf9 membrane polyspecificity reagent, FACS + sequencing; frameworks hold sequencing errors. The essentials:
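Synthetic nanobody libraries on Saccharomyces cerevisiae BJ5465 were galactose-induced for 36–48 hours, stained 1 hour at 4 °C with 10% biotinylated, detergent-solubilized Sf9 membrane reagent and enriched on streptavidin microbeads. FACS then separated cells into low and high (top ~1%) gates by anti-HA (expression) and streptavidin (reagent binding) fluorescence. Genes were colony-PCR amplified, MiSeq 2 × 250 sequenced and CDR-length filtered. A clone's polyreactivity label is that of its gate of origin.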
Regarding “QVQLVDSGGGLVQAGGSLRLSCAASGRIFYQNAMGWYRQAPGKETELVADNSSGGSTYYADSVKGRFTISRDNAKNTVYLQMNSLKPEDNAVYYCNTPSGPGTVGSYRRKWYGYWGQGTQLTVSS”, the “polyreactivity (PSR sort gate)” value was “low polyreactivity”.
With “QVQLVDSGGGLVQAGGSLRLSCAASGRIFYYYAMGWYRQAPGKEREFVAAINSRDGSTNYADSVKGRFTISRDNAKNTVYLQMNSLKPEDTAVYYCAAEGYRSWRGLRSRYYYWGQGTQVTVSS”, the “polyreactivity (PSR sort gate)” value is reported as “high polyreactivity”.
The result for “QVQLVDSGGGLVQAGGSLRLSCAASGRIIGGKAMGWYRLAPGKVREFVAAIRASGGSPHYADSVKGRFTISRDNAKNTVYLQRNSLTPEDTEVYYCNALSRNTHLYDYWGQGTHVTVSS” reads “high polyreactivity”; that for “QVQLVDSGGGLVQAGGSLRLSCAASGRPSVLMLMGWYRQAPGKERELVAAIDDSTDTTYYADSVKGRFTISRDNAKNTVYLQMNSLKPEDTAVYYCAAEEGYVKFSGSWSYGYDYWGQGTQVTVSS”, “high polyreactivity”.
Regarding “QVQLVDSGGGLVQAGGSLRLSCAASGRTFAYNDMGWYRQAPGKERELVAAISWSDGTTYYADSVKWRFTISRDNAKNTVYLQMNRLKPEDTAVYYCAAVSIYWGQGTQVTVSS”, the “polyreactivity (PSR sort gate)” value is reported as “low polyreactivity”.
The result for “QVQLVDSGGGLVQAGGSLRLSCAASGRTFGVYAIGWYRQAPGKERELVAAITSGGSTNYADSVKGLLTISRDNANNTVYLQMNSLKPEDTAVYYCAARYKAYWQLYDYWGQGTQVTVSS” reads “high polyreactivity”; that for “QVQLVDSGGGLVQAGGSLRLSCAASGRTFKRYDMGWYRQAPGKEREFVAAISWTGGSTYYADTVKGRFTISRDHAKNSVYLQMNSLKPEDTAVYYCARKFLWQGFVYWGQGTQVTVSS”, “low polyreactivity”; that for “QVQLVDSGGGLVQAGGSLRLSCAASGRTFKRYDMGWYRQAPRKEREFVAAISWTGGSTYYADTVKGRFTISRDNEKNTVYLQMNSLKPEDTAVYYCARKFLWKGFDYWGQGTQVTVSS”, “low polyreactivity”.
As for “QVQLVDSGGGLVQAGGSLRLSCAASGRTFNWYAMGWYRQETRKERELVAAISSTGGSTYYADSVKGRFTISRDNAKNTVYLQMNSLKPEDTAVYYCAAALPGYGDYYYWGQGTQVTVSS”, the entry is “high polyreactivity”; as for “QVQLVDSGGGLVQAGGSLRLSCAASGRTFQFYVMGWYRQAPGKERELVASIRSGGSTNYADSVKGRFTISRDNAKNTVYLQMNSLKPEDTAVYYCATESYPADQDIPGSDYWGQGTQVTVSS”, “low polyreactivity”; as for “QVQLVDSGGGLVQAGGSLRLSCAASGRTFRYYAMGWYRQAPGKERELVATITGSGGSTYYADSVKGRFTISRDNAKNTVYLQLISLKPEDTAVYYCNARKVRYPYRWYDYWGQGTQVTVSS”, “high polyreactivity”.
The result for “QVQLVDSGGGLVQAGGSLRLSCAASGRTFSGNAMGWYRQAPGKERELVAAIRGGGSTYYADSVKGRFTISRDNAKNTVYLQMNSLKPEDTAVYYCAGRSQVYAPAYYRSKYDYWGQGTQVTVSS” reads “high polyreactivity”; that for “QVQLVDSGGGLVQAGGSLRLSCAASGRTFVPYAMGWYRQAPGKERELVAAISSGGDTNYADSVKGRFTISRDNAKNTVYLQMTSLKPEDTAVYYCNADSYYYVYGYDMGYWGQGTQVTVSS”, “low polyreactivity”; that for “QVQLVDSGGGLVQAGGSLRLSCAASGRTFYDNDMGWYRQAPGKERELVARIRRGGNTKYADSVKGRFTISRDNAKNTVYLQMNSLKPEDTAVYYCNRDYGSKIYDYWGQGSQVTVSS”, “low polyreactivity”.
“QVQLVDSGGGLVQAGGSLRLSCAASGRTIRYNAMGWYRQAPGKERELVAVINSNGGSTYYADSVKGRFTISRDNSKNTVYLQMNSLKPEDTAVYYCAADYIRIQEYDYWGQGTQVTVSS”: the “polyreactivity (PSR sort gate)” value is “low polyreactivity”.
As for “QVQLVDSGGGLVQAGGSLRLSCAASGRTISGYAMGWYRQAPGKERELVAAITSRGGRTYYADSVKGRFTISRDNAKNTVYLQMNSLKPEDTAVYYCAAYRRLTLYDYWGQGTQVTVSS”, the entry is “high polyreactivity”; as for “QVQLVDSGGGLVQAGGSLRLSCAASGRTIVYYAMGWYRQAPGKERELVAAIRSGGSTNYADSVKGRFTISRDNAKNTVYLQMNSLKPEDTAVYYCNAVHYYYYKGDYWGQGTQVTVSS”, “high polyreactivity”; as for “QVQLVDSGGGLVQAGGSLRLSCAASGRTLAFNAMGWYRQAPGKERELVAVIRNGTSTNYADSVKGRFTISRDNAKNTVYLQMNSLKPEDTGVYYCNVPYYLPSYLSGYDYWGQGTQVTVSS”, “low polyreactivity”.
The result for “QVQLVDSGGGLVQAGGSLRLSCAASGRTLAGYVMGWYRQAPGKERELVATISNGGSTYYADSVKGRFTISRDNAKNTVYLQMNSLKPEDTAVYYCNRYWYRKHSTDPPVRYRPVGYWGQGTQVTVSS” reads “high polyreactivity”; that for “QVQLVDSGGGLVQAGGSLRLSCAASGRTLSFYGMGWYRQAPGKERELVAAISSSGSRTYYADSVKGRFTISRDNAKNTVYLQMNSLKPEDTAVYYCNALRIYHHYEYDYWGQGTQVTVSS”, “high polyreactivity”.
As for “QVQLVDSGGGLVQAGGSLRLSCAASGSIFDANAMGWYRQAPGKERELVAAITFDSGSTHYADSVKGRFTISRDNAQNTVYLQMNSLKPEDTAVYYCAVRDFNSDYDYWGQGTQVTVSS”, the entry is “low polyreactivity”.
As to “QVQLVDSGGGLVQAGGSLRLSCAASGSIFHFYAMGWYREATGKERELVAAITRGGGSTYYADSVKGRFTISRDNAKNTVYLQMNSLKPEDTAVYYCAAYKYYRYNYWGQGTQVTVSS”, the “polyreactivity (PSR sort gate)” value is recorded as “high polyreactivity”.
As for “QVQLVDSGGGLVQAGGSLRLSCAASGSIFKTYAMGWYRQAPGKERELVATNTRRTGSTYYADSVKGRFTISRDNAMNSVYLQMNSLKPEDPAVYYCAAELYPSWSHTVFHGYNYWGQGTQVTVSS”, the entry is “high polyreactivity”; as for “QVQLVDSGGGLVQAGGSLRLSCAASGSIFPYNDMGWYRKAPGKERELVARITNGGSTNYADSVKGRFTISRDNAKNTVYLQMNSLKPEDTAVYYCNKDGTQEFAPDGHEYWGQCTQVTVSS”, “low polyreactivity”; as for “QVQLVDSGGGLVQAGGSLRLSCAASGSIFYHNAMGWSRQAPGKERELVAAITWSGSTTYYADSVKGRFTISRDNAKNTVYLQMNRLKPEDTAVYYCAVDIYYYSNVHYYYWGQGTQVTVSS”, “low polyreactivity”.
As for “QVQLVDSGGGLVQAGGSLRLSCAASGSIITYYAMGWYRQAPGKERELVAGISRRGASTYYADSVKGRFTISRDNAKNTVYLQMNSLNPEDTEVYYCAAVPYYYYGFDYWGQGTQVTVSS”, the “polyreactivity (PSR sort gate)” value is recorded as “high polyreactivity”.
As for “QVQLVDSGGGLVQAGGSLRLSCAASGSILGAKDMGWFRQAPGKERELVATITWNGGGTSYADSVKGRFTISRDNAKNTVYLQMNSLKAEDTAVYYFNALGRDSQALYRYRLVGEFGYWGQGSQVTVSS”, the entry is “low polyreactivity”; as for “QVQLVDSGGGLVQAGGSLRLSCAASGSILYHYAMGWYRQAPGKERELVAGISWRGGSTYYADSVKGRFTISRDNAKNTVYLQMNSLKPEATAVYYCATQRYPYRFYAFQYYYWGQGTQVTVSS”, “low polyreactivity”; as for “QVQLVDSGGGLVQAGGSLRLSCAASGSNITRKAMGWYRQAPGKERELVAAIRKIGGRTYYADSVKGRFTISRDNAKNTVYLQMNSLKPEDTAVYYCAAGGSYYRDDYWGQGTQVTVSS”, “low polyreactivity”.
As for “QVQLVDSGGGLVQAGGSLRLSCAASGSTFAFYAMVWSRQAPGKERELVAANSSNGVSTYYADSVKGRFTISRDNAKNTVYLQMKSLKPEDTAVYYCARDVYASPRLYTSRYNYWGQGTQVTVSS”, the entry is “low polyreactivity”; as for “QVQLVDSGGGLVQAGGSLRLSCAASGSTFAPYAMGWSRQAPGKERELVAAISWGGGSTYYADSVKGRFTISRDNAKNTVYLQMNSLKPEDTAVYYCAADYAEYSAEWYEDWGQGTQVTVSS”, “high polyreactivity”; as for “QVQLVDSGGGLVQAGGSLRLSCAASGSTFFFNDLGWSRQAPGKESEFVAGISSSGGSTHYADSVKGRFTISRDKAKNTVYFQMNSLKPEDTAVYYCNTLRNWYYQFDFNYWGQGTQVTVSS”, “low polyreactivity”.
The result for “QVQLVDSGGGLVQAGGSLRLSCAASGSTFGGNAMGWYRQAPGKERELVAAITGSGGRTFYADSVKGRFTISRDNAKNTVYLQMNSLNPEDTAVYYCAADSYIYSVNYWGQGTQLTVSS” reads “low polyreactivity”; that for “QVQLVDSGGGLVQAGGSLRLSCAASGSTFIYYAMGWYRQAPGKEREFVAAISYRGGSTYYADSVKGRFTISRDNAKNTVYLQMNSLKPEDTAVYYCAASYRKWNDYWGQGTQVTVSS”, “high polyreactivity”.
With “QVQLVDSGGGLVQAGGSLRLSCAASGSTFPDNAMGWYRQAPGKERALVAAIRWTGGSTYYADSVKGRFTISRDNAKNTVYLQMNSLKPEDTAVYYCNTAYTVSWRSPYDYWGQGTQVTVSS”, the “polyreactivity (PSR sort gate)” value is “high polyreactivity”.
On to “QVQLVDSGGGLVQAGGSLRLSCAASGSTFRRYAMGWYRQAPGKERELVAAITTADITNYADSVKGRFTISRDNAKNTVYLQMNSLKPEDTAVYYCAAPVAYRGSRNFIYRYNYWGQGTQVTVSS”, for which the “polyreactivity (PSR sort gate)” value is reported as “high polyreactivity”.
As for “QVQLVDSGGGLVQAGGSLRLSCAASGSTFRVNAMGWYRQAPGKERELGAAISGSGSGTYYADSVKGRFTISRDNAKNTVYLLMNSLKPEDTAVYYCAKVPKSRGYVGGMDYWGQGTQVTVSS”, the entry is “low polyreactivity”; as for “QVQLVDSGGGLVQAGGSLRLSCAASGSTFTTNGMGGYRQAPGKERELVAAITRGGSTNYADSVKGRFTISRDNAKNTVFLQMNSLKPEDTAVYYCAAQNYWYYPRRFDYWGQGTQVTVSS”, “high polyreactivity”; as for “QVQLVDSGGGLVQAGGSLRLSCAASGSTFWFYAMGWYRQAPGNERELVAVISNSGSTYYADSVKGRFRISRDNAKNTVYLQMNSLKPEDTAVYYCNKDGGGDSYWYDYWGQGTQVTVSS”, “low polyreactivity”.
The result for “QVQLVDSGGGLVQAGGSLRLSCAASGSTFYFYAMGWYRQAPGKQRELVAAITWTDGDTYYADSVKGRFTISRDIAKNTVYLQMNSLKPEDTAVYYCATDSFWYEYDYWGQGTQVTVSS” reads “high polyreactivity”; that for “QVQLVDSGGGLVQAGGSLRLSCAASGSTFYGYAMGWYRQAPGKERELVATISSSGAITYYADSVKWRFTISRDNAKNTVYLQMNRLKPEDPAVYYCARTGSLLSQVWYNYWGQGTQVTVSS”, “low polyreactivity”.
